Data set [1] deals with T1, scNep1 (Emg1) (Saccharomyces cerevisiae, UniProt Q06287 1-252). The experiment in a line: X-ray crystallography.
Data set [2] addresses T1, scNep1 (Emg1). The experiment in a line: 1:1 molar mix.

With GGGCUUCAACGCCC (structured_RNA) [14-base Nep1 RNA], the binding result in the data set with scNep1 (Emg1) [1] and with scNep1 (Emg1) [2] was “binds” in each case.

These data come from paper PMC3064781.
